This assay addresses presenilin homolog from the methanogen Methanoculleus marisnigri JR1, wild type (Methanoculleus marisnigri JR1).

Primed or numbered codes have the meaning given here. * marks the point of attachment. EDANS′ = N-[2-[(5-sulfo-1-naphthalenyl)amino]ethyl]-L-α-glutamine (donor); DABCYL = 4-((4-(dimethylamino)phenyl)azo)benzoyl (quencher); Benzoyl(2-NHMe) = CNc1ccccc1C(=O)*

This passage reports Km of cleavage, FRET enzyme kinetics assay (Michaelis-Menten), in DDM, Km of cleavage, FRET enzyme kinetics assay (Michaelis-Menten), in bicelles (DMPC/CHAPSO) and Km of cleavage, FRET enzyme kinetics assay (Michaelis-Menten), in DDM, no inhibitor, 37 °C, 500 nM MCM.IAP results from PMC10679502.

As to {Benzoyl(2-NHMe)}-GGVVIATV-{Lys(DNP)} [C100FRET NMA-GGVVIATV-DNP], the Km of cleavage, FRET enzyme kinetics assay (Michaelis-Menten), in DDM was 7.5 µM and the Km of cleavage, FRET enzyme kinetics assay (Michaelis-Menten), in bicelles (DMPC/CHAPSO) turned out to be 2.8 µM.
In the case of {EDANS′}-LVIVGLTFAV-{DABCYL} [ErbFRET EDANS-…-DABCYL], the Km of cleavage, FRET enzyme kinetics assay (Michaelis-Menten), in DDM, no inhibitor, 37 °C, 500 nM MCM.IAP was 4.9 µM and the Km of cleavage, FRET enzyme kinetics assay (Michaelis-Menten), in bicelles (DMPC/CHAPSO) amounted to 6.3 µM.
